Measurements as given in PMC10786891, “Massively parallel profiling of RNA-targeting CRISPR-Cas13d”.
Numbering of substitutions follows the chain as printed. In names and notes the source's numbering stands.

Target: T1, EsCas13d, nuclease-dead (Eubacterium siraeum, UniProt B0MS50, R295A;H300A;R849A;H854A)
T1 sequence: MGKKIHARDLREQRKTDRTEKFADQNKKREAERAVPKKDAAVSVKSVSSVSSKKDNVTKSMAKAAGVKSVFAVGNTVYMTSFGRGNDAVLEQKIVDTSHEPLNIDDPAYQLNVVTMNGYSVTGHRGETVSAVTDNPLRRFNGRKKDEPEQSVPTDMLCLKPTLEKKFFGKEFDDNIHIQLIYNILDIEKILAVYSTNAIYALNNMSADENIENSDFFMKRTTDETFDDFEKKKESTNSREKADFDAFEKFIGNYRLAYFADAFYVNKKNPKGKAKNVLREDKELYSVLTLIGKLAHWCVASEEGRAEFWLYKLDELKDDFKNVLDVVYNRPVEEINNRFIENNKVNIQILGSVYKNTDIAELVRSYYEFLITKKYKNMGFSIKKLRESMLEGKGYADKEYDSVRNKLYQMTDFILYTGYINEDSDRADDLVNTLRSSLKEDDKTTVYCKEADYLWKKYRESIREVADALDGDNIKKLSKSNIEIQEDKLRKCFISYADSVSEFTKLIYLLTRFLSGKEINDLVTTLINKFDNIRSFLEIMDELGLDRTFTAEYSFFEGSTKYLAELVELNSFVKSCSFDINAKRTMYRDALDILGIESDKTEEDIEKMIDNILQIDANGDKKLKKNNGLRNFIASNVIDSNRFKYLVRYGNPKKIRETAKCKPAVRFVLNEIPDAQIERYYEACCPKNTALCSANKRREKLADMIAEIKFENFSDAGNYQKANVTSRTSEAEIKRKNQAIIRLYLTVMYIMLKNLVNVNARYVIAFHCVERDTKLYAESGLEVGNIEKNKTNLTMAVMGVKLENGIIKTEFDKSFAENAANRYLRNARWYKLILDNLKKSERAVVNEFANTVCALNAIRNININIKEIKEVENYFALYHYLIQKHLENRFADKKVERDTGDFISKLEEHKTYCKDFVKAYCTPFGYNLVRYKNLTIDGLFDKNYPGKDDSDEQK
Test: crRNA (strand 1, pre-loaded); Mg2+; 40 mM Tris-HCl pH 7.5, 150 mM NaCl, 6 mM MgCl2, 1 mM DTT, 0.1% Tween-20, 0.2 mg/ml BSA; 25 C; 10 min per concentration, then washed
Conditions: tags: His6-TwinStrep-SUMO cleaved; N-terminal SNAP kept (SNAP-Surface 488); label: 3' end held by stalled T7 RNA polymerase

B1: target 1 MT 5'PFS ACC 3'PFS UUG (mixed)
RNA 1: CACCCGUGCAAAAAUGCAGGGGUCUAAAACUGAGCGGAUAACCUCUCUAUGG
RNA 2: GGGAAUGGAUCCACAUCUACGAAUUCACCCCAUAGAGAGGUUAUCCGCUCAUUGAGAUCGGAAGAGCACACGU
**Q.** Which Kd does the source give for B1 here?
**A.** 7.35 ± 3.35 nM

B2: target 1 U3G,G5C (mixed)
RNA 1: B1 RNA 1
RNA 2: B1 RNA 2 with A27G, C28U, C29A, G47C, U49G, U52C, U53C
**Q.** B2 was tested. Which Kd did it give?
**A.** 16.7 ± 1.1 nM

B3: target 1 MT 5'PFS UAA 3'PFS UCU (mixed)
RNA 1: B1 RNA 1
RNA 2: B1 RNA 2 with A27U, C28A, C29A, U53C, G54U
**Q.** How did the Kd turn out when B3 was run?
**A.** 44.5 ± 15 nM

B4: target 1 MT 5'PFS GGC 3'PFS CAU (mixed)
RNA 1: B1 RNA 1
RNA 2: B1 RNA 2 with A27G, C28G, U52C, U53A, G54U
**Q.** Which Kd does the source give for B4 here?
**A.** 15.7 ± 5.5 nM

B5: target 1 MT 5'PFS UGG 3'PFS CCG (mixed)
RNA 1: B1 RNA 1
RNA 2: B1 RNA 2 with A27U, C28G, C29G, U52C, U53C
**Q.** For B5, which Kd is on record?
**A.** 47 ± 9.5 nM

B6: target 1 MT 5'PFS GGA 3'PFS CUG (mixed)
RNA 1: B1 RNA 1
RNA 2: B1 RNA 2 with A27G, C28G, C29A, U52C
**Q.** B6 was tested. Which Kd did it give?
**A.** 11.3 ± 1.9 nM

B7: target 1 MT 5'PFS UCC 3'PFS UGU (mixed)
RNA 1: B1 RNA 1
RNA 2: B1 RNA 2 with A27U, U53G, G54U
**Q.** B7 was tested. Which Kd did it give?
**A.** ~70 nM

B8: target 1 MT 5'PFS AGU 3'PFS ACA (mixed)
RNA 1: B1 RNA 1
RNA 2: B1 RNA 2 with C28G, C29U, U52A, U53C, G54A
**Q.** B8 was tested. Which Kd did it give?
**A.** 65 ± 29 nM

B9: target 1 MT 5'PFS UCA 3'PFS CGU (mixed)
RNA 1: B1 RNA 1
RNA 2: B1 RNA 2 with A27U, C29A, U52C, U53G, G54U
**Q.** How did the Kd turn out when B9 was run?
**A.** 18.5 ± 6.5 nM

B10: target 1 MT 5'PFS GGG 3'PFS UAU (mixed)
RNA 1: B1 RNA 1
RNA 2: B1 RNA 2 with A27G, C28G, C29G, U53A, G54U
**Q.** Which Kd does the source give for B10 here?
**A.** 16.7 ± 3.25 nM

B11: target 1 MT 5'PFS GGA 3'PFS CUU (mixed)
RNA 1: B1 RNA 1
RNA 2: B1 RNA 2 with A27G, C28G, C29A, U52C, G54U
**Q.** With B11 as the binder, how does the Kd read?
**A.** 13 ± 4.5 nM

B12: target 1 MT 5'PFS CCA 3'PFS UGA (mixed)
RNA 1: B1 RNA 1
RNA 2: B1 RNA 2 with A27C, C29A, U53G, G54A
**Q.** With B12 as the binder, how does the Kd read?
**A.** 13 ± 4.5 nM

B13: target 1 MT 5'PFS GCC 3'PFS UUC (mixed)
RNA 1: B1 RNA 1
RNA 2: B1 RNA 2 with A27G, G54C
**Q.** B13 was tested. Which Kd did it give?
**A.** 17 ± 5.5 nM

B14: target 1 MT 5'PFS CUC 3'PFS UGC (mixed)
RNA 1: B1 RNA 1
RNA 2: B1 RNA 2 with A27C, C28U, U53G, G54C
**Q.** For B14, which Kd is on record?
**A.** ~60 nM

B15: target 1 MT 5'PFS CCA 3'PFS UGC (mixed)
RNA 1: B1 RNA 1
RNA 2: B1 RNA 2 with A27C, C29A, U53G, G54C
**Q.** For B15, which Kd is on record?
**A.** 3.55 ± 0.8 nM

B16: target 1 MT 5'PFS UAA 3'PFS UCA (mixed)
RNA 1: B1 RNA 1
RNA 2: B1 RNA 2 with A27U, C28A, C29A, U53C, G54A
**Q.** With B16 as the binder, how does the Kd read?
**A.** 32 ± 9.5 nM

B17: target 1 MT 5'PFS GUU 3'PFS AUU (mixed)
RNA 1: B1 RNA 1
RNA 2: B1 RNA 2 with A27G, C28U, C29U, U52A, G54U
**Q.** For B17, which Kd is on record?
**A.** 13.9 ± 2.3 nM

B18: target 1 MT 5'PFS UAA 3'PFS UCC (mixed)
RNA 1: B1 RNA 1
RNA 2: B1 RNA 2 with A27U, C28A, C29A, U53C, G54C
**Q.** For B18, which Kd is on record?
**A.** 82.5 ± 27.5 nM

B19: target 1 MT 5'PFS GGC 3'PFS CAA (mixed)
RNA 1: B1 RNA 1
RNA 2: B1 RNA 2 with A27G, C28G, U52C, U53A, G54A
**Q.** B19 was tested. Which Kd did it give?
**A.** ~34 nM

B20: target 1 C2G,U10G (mixed)
RNA 1: B1 RNA 1
RNA 2: B1 RNA 2 with A27G, C28U, C29A, U42G, C50G, U52C, U53C
**Q.** For B20, which Kd is on record?
**A.** 42 ± 7 nM

B21: target 1 MT 5'PFS GGG 3'PFS UAG (mixed)
RNA 1: B1 RNA 1
RNA 2: B1 RNA 2 with A27G, C28G, C29G, U53A
**Q.** B21 was tested. Which Kd did it give?
**A.** 16.1 ± 2.1 nM

B22: target 1 MT 5'PFS GGG 3'PFS UAA (mixed)
RNA 1: B1 RNA 1
RNA 2: B1 RNA 2 with A27G, C28G, C29G, U53A, G54A
**Q.** B22 was tested. Which Kd did it give?
**A.** 17.4 ± 2.8 nM

B23: target 1 MT 5'PFS UCA 3'PFS CGA (mixed)
RNA 1: B1 RNA 1
RNA 2: B1 RNA 2 with A27U, C29A, U52C, U53G, G54A
**Q.** B23 was tested. Which Kd did it give?
**A.** 12.2 ± 3.45 nM

B24: target 1 MT 5'PFS UAA 3'PFS AUG (mixed)
RNA 1: B1 RNA 1
RNA 2: B1 RNA 2 with A27U, C28A, C29A, U52A
**Q.** With B24 as the binder, how does the Kd read?
**A.** 57.5 ± 16 nM

B25: target 1 insU 3' of 14,insA 3' of 8 (mixed)
RNA 1: B1 RNA 1
RNA 2: GGGAAUGGAUCCACAUCUACGAAUUCGUACCAUAGAGAUGGUUAUACCGCUCACCGAGAUCGGAAGAGCACACGU
**Q.** With B25 as the binder, how does the Kd read?
**A.** 38.6 ± 3.2 nM

B26: target 1 MT 5'PFS UCC 3'PFS UGA (mixed)
RNA 1: B1 RNA 1
RNA 2: B1 RNA 2 with A27U, U53G, G54A
**Q.** B26 was tested. Which Kd did it give?
**A.** ~29 nM

B27: target 1 insG 3' of 22,insG 3' of 6 (mixed)
RNA 1: B1 RNA 1
RNA 2: GGGAAUGGAUCCACAUCUACGAAUUCGUACGCAUAGAGAGGUUAUCCGGCUCACCGAGAUCGGAAGAGCACACGU
**Q.** Which Kd does the source give for B27 here?
**A.** 51 ± 10 nM

B28: target 1 MT 5'PFS UCC 3'PFS UGC (mixed)
RNA 1: B1 RNA 1
RNA 2: B1 RNA 2 with A27U, U53G, G54C
**Q.** How did the Kd turn out when B28 was run?
**A.** ~12.5 nM

B29: target 1 MT 5'PFS GCC 3'PFS UUA (mixed)
RNA 1: B1 RNA 1
RNA 2: B1 RNA 2 with A27G, G54A
**Q.** B29 was tested. Which Kd did it give?
**A.** 12.5 ± 3.7 nM

B30: target 1 MT 5'PFS GCC 3'PFS UUG (mixed)
RNA 1: B1 RNA 1
RNA 2: B1 RNA 2 with A27G
**Q.** Which Kd does the source give for B30 here?
**A.** 8.2 ± 1.1 nM

B31: target 1 insA 3' of 19,insA 3' of 7 (mixed)
RNA 1: B1 RNA 1
RNA 2: B27 RNA 2 with G31C, C32A, A33U, U34A, C47A, G48C
**Q.** For B31, which Kd is on record?
**A.** 15.2 ± 1.4 nM

B32: target 1 MT 5'PFS GGG 3'PFS UAC (mixed)
RNA 1: B1 RNA 1
RNA 2: B1 RNA 2 with A27G, C28G, C29G, U53A, G54C
**Q.** With B32 as the binder, how does the Kd read?
**A.** 16.8 ± 2.75 nM

B33: target 1 MT 5'PFS AGU 3'PFS ACC (mixed)
RNA 1: B1 RNA 1
RNA 2: B1 RNA 2 with C28G, C29U, U52A, U53C, G54C
**Q.** For B33, which Kd is on record?
**A.** ~80 nM

B34: target 1 MT 5'PFS AGU 3'PFS ACG (mixed)
RNA 1: B1 RNA 1
RNA 2: B1 RNA 2 with C28G, C29U, U52A, U53C
**Q.** How did the Kd turn out when B34 was run?
**A.** 36 ± 10 nM

B35: target 1 MT 5'PFS AGU 3'PFS ACU (mixed)
RNA 1: B1 RNA 1
RNA 2: B1 RNA 2 with C28G, C29U, U52A, U53C, G54U
**Q.** B35 was tested. Which Kd did it give?
**A.** 38 ± 11 nM

B36: target 1 MT 5'PFS UAA 3'PFS AUC (mixed)
RNA 1: B1 RNA 1
RNA 2: B1 RNA 2 with A27U, C28A, C29A, U52A, G54C
**Q.** How did the Kd turn out when B36 was run?
**A.** 33 ± 10 nM

B37: target 1 MT 5'PFS UAA 3'PFS AUA (mixed)
RNA 1: B1 RNA 1
RNA 2: B1 RNA 2 with A27U, C28A, C29A, U52A, G54A
**Q.** With B37 as the binder, how does the Kd read?
**A.** 47 ± 13.5 nM

B38: target 1 MT 5'PFS CCU 3'PFS UCA (mixed)
RNA 1: B1 RNA 1
RNA 2: B1 RNA 2 with A27C, C29U, U53C, G54A
**Q.** For B38, which Kd is on record?
**A.** 26.5 ± 10.5 nM

B39: target 1 MT 5'PFS UAG 3'PFS AGG (mixed)
RNA 1: B1 RNA 1
RNA 2: B1 RNA 2 with A27U, C28A, C29G, U52A, U53G
**Q.** For B39, which Kd is on record?
**A.** 65.5 ± 15 nM
